According to patent publication US20260102487A1 (Amgen, published 2026):

T1: human IL-2Rα (Sino Biological) (human, UniProt P01589 22-213, limits assumed)
T1 construct: Bought recombinant protein; also called IL2RA; CD25
T1 sequence: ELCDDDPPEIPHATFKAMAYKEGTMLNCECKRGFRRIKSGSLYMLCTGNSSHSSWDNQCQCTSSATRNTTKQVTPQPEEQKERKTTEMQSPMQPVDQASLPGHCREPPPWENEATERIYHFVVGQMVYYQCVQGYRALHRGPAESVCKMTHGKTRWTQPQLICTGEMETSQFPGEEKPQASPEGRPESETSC

T2: IL-7R (Sino Biological) (UniProt P16871 21-239)
T2 sequence (looked up): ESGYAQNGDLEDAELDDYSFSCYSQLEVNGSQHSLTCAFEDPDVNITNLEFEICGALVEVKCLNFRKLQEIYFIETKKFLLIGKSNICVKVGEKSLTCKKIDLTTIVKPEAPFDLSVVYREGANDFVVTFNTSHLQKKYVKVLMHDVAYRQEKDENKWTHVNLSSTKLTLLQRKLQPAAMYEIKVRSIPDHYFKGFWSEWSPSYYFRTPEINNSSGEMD

T3: IL-9R (R&D Systems) (UniProt Q01113 41-270, limits assumed)
T3 sequence (looked up): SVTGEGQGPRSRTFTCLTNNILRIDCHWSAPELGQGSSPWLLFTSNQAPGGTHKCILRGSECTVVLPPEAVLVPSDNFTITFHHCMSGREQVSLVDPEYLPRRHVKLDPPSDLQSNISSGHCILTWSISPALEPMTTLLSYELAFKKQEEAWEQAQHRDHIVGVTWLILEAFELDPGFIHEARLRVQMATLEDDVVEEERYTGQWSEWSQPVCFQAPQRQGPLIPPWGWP

T4: IL2RB, Human
T4 construct: Same protein as m17, but here as recombinant protein in solution, not on CHO cells; also called human IL-2RB (AcroBiosystems); IL-2Rβ
T4 receptor chain: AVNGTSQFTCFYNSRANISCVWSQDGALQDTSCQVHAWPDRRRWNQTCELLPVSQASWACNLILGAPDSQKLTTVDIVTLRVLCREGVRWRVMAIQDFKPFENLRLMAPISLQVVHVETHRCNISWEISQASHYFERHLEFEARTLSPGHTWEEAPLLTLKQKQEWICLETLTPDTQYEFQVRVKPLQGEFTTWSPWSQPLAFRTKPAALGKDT


Columns and labels:
IL-21R (Sino Biological) = IL-21R (Sino Biological) (UniProt Q9HBE5 20-232); test: Octet (BLI) off-rate, antibody captured on AHC sensors
Experimental: (§1) All off-rate measurements were performed on an Octet Qk384 instrument (ForteBio), in 96-well microplates at 25° C. using anti-human IgG Fc capture (AHC, 18-5005) sensors with a shake speed of 1000 rpm. For off-rate determination, the antibodies/antibody fragments were loaded on the AHC sensors at 5 μg/mL. Following a short baseline in kinetics buffer (0.02% Tween20, 0.1% BSA, 0.05% sodium azide, 1X PBS). Offrate measurements were done for the following: human IL-2Rβ (AcroBiosystems), human IL-2Ry (Sino Biological), cynomolgus IL-2RP (Sino Biological), cynomolgus IL-2Rγ (expressed and purified in house using ExpiCHO expression system followed by Ni-NTA His-tag purification), mouse IL-2Rγ (Sino Biological), mouse IL-2Rβ (Sino Biological), human IL-2Rα (Sino Biological), IL-4R (Sino Biological), IL-7R (Sino Biological), IL-9R (R&D Systems) and IL-21R (Sino Biological). The following antibodies were used as positive controls to verify target binding and reagent quality: anti-human IL-9R (R&D Systems), anti-human IL-21R (R&D Systems), anti-human IL-7R (R&D Systems) and anti-human IL-4Ra (R&D Systems). The loaded sensors were then submerged in wells containing antigen at 100 nM concentration for association step. Dissociation was monitored in kinetics buffer. The capture surfaces were regenerated for 60 s. ForteBio data analysis software was used to fit the data to a 1:1 binding model to extract an association rate and dissociation rate.

[1] = target: T1, human IL-2Rα (Sino Biological); test: as above
Experimental: as §1

IL-7R (Sino Biological) = target: T2, IL-7R (Sino Biological); test: as above
Experimental: as §1

IL-9R (R&D Systems) = target: T3, IL-9R (R&D Systems); test: as above
Experimental: as §1

[2] = target: T5, cynomolgus IL-2Rβγ receptor on cynomolgus T-cells (PBMCs) (cynomolgus); test: flow cytometry cell binding on cynomolgus CD8+ T-cells (PBMC), gMFI as fold over secondary antibody only
T5 construct: whole, on cells; Endogenous receptor on primary cynomolgus cells
Experimental: All washes and dilutions of cells, antibodies, and reagents were performed using flow buffer (1X PBS, 1% BSA, 0.1% NaN3, pH 7.4). Staining was performed in a round-bottom 96-well plate (Corning) seeded at 100,000 cells/well, and all incubations were performed at 4° C. or on ice. […] The cells were washed twice with 200 μL flow buffer. The cells were then incubated for 30 minutes with detection antibody (Goat F(ab′)2 Anti-Human IgG-PE, Southern Biotech) at 0.625 μg/mL in flow buffer. Following 2 more washes, the cells were resuspended in a final volume of 150 μL of flow buffer. The cells were analyzed on a BD FACSCelesta or a Guava easyCyte 8-HT flow cytometer. At least 3000 events were collected, and PE geometric mean fluorescence intensity was plotted as a fold over background (cells incubated with secondary detection antibody only). In some secondary screens involving human or cynomolgus PBMCs, an additional CD4 antibody (BioLegend) and/or CD8 antibody (BioLegend) was included to further characterize cell binding.

IL2RB, Human = target: T4, IL2RB, Human; test: biolayer interferometry (Octet Qk384), antibody captured on anti-human Fc (AHC) sensors, antigen 7.8-500 nM in solution, 1:1 fit, KD = kd/ka
Experimental: All kinetics measurement experiments were performed on a ForteBio Octet Qk384 instrument using anti-human Fc capture (AHC, 18-5005) sensors. The bispecific heavy chain-only antibodies and antigens were diluted to final concentrations in Kinetics buffer (0.02% Tween20, 0.1% BSA, 0.05% sodium azide, 1X PBS). Kinetics measurements were against the following antigens: human IL-2RB (AcroBiosystems), human TL-2RG (AcroBiosystems), cynomolgus IL-2RB (Sino Biological), cynomolgus IL-2RG (expressed and purified in house using ExpiCHO expression system followed by Ni-NTA his-tag purification). The antibodies were loaded on the AHC sensors at 5 μg/mL for maximum loading. Following a short baseline in Kinetics buffer, the sensors were exposed to a series of analyte concentrations (7.8 nM to 500 nM) for association step and background subtraction was used to correct for sensor drifting. Dissociation was monitored in Kinetics buffer. The capture surfaces were regenerated for 60s. All experiments were performed with shaking at 1000 rpm. ForteBio's data analysis software was used to fit the data to a 1:1 binding model to extract an association rate and dissociation rate. The KD was calculated using the ratio kd/ka.

Chain of IL-21R (Sino Biological) (Q9HBE5 20-232 limits assumed): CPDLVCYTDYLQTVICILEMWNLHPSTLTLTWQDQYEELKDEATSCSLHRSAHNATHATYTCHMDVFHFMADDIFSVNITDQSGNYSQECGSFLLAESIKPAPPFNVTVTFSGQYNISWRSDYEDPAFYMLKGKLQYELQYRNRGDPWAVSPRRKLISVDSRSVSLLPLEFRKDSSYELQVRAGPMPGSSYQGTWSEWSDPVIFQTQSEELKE

Binder | binding result (IL-21R (Sino Biological)) | binding result [1] | binding result (IL-7R (Sino Biological)) | binding result (IL-9R (R&D Systems)) | EC50 (read off the curve) [2] [nM] | Kd (IL2RB, Human) [nM]
BsAb-2 (IL2RB_F09G**IL2RG_F16B) (bispecific antibody, human IgG4, V domains shown, Heavy chain-only bispecific on silenced, stabilised human IgG4 Fc, knobs-into-holes, no light chains; not shown: C-terminal His-tag on the knob chain) V domain 1: QVQLQESGPGLVKSSETLSLTCTVSGGSISSSDWWSWVRQPPGKGLEWIGEIDHSGSTNYNPSLMSRVTISVDKSKNQFSLKLSSVTAADTAVYFCARGSWELTDAFDIRGQGTLVTVSS V domain 2: QVQLVESGGGLVKPGGSLRLSCAASGFTFSDYYMSWIRQAPGKGLEWVSYISSSGSTIYYADSVKGRFTISRDNAKNSLYLQMNSLRAEDTAVYYCARGDAVSITGDYRGQGTLVTVSS | no binding (tested: antigen at 100 nM) | no binding (tested: antigen at 100 nM) | no binding (tested: antigen at 100 nM) | no binding (tested: antigen at 100 nM) | ~2 | 93.4
BsAb-6 (IL2RB_F18E**IL2RG_F16A) (bispecific antibody, human IgG4, V domains shown, Heavy chain-only bispecific on silenced, stabilised human IgG4 Fc, knobs-into-holes, no light chains; not shown: C-terminal His-tag on the knob chain) V domain 1: QVQLVESGGGVVQPGRSLRLSCAASGFTFSSYGMHWVRQAPGKEREWVAVISYDGSNKYYTDSVKGRFTISRDNSKNTLYLEMNSLRAEDTAVYYCARDLDYDVLTGDPVGGFDIWGQGTLVTVSS V domain 2: QVQLVESGGGLVKPGGSLRLSCAASGFTFSDYYMSWIRQAPGKGLEWVSSISSSGDTIYYADSVQGRFTLSRDNAENSLFLQMNSLRAEDTAVYYCARGDAVSITGDYRGQGTLVTVSS | no binding (tested: antigen at 100 nM) | no binding (tested: antigen at 100 nM) | no binding (tested: antigen at 100 nM) | no binding (tested: antigen at 100 nM) | ~20 | 53.8
BsAb-4 (IL2RB_F09G**IL2RG_F18A) (bispecific antibody, human IgG4, V domains shown, Heavy chain-only bispecific on silenced, stabilised human IgG4 Fc, knobs-into-holes, no light chains; not shown: C-terminal His-tag on the knob chain) V domain 1: QVQLQESGPGLVKSSETLSLTCTVSGGSISSSDWWSWVRQPPGKGLEWIGEIDHSGSTNYNPSLMSRVTISVDKSKNQFSLKLSSVTAADTAVYFCARGSWELTDAFDIRGQGTLVTVSS V domain 2: QVQLVESGGDLVKPGGSLRLSCAASGFTFSDYYMSWLRQAPGKELEWVSHISSSGTTTYYADSVEGRFTITRDNAKNSLYLQMNSLRAEDTAVYYCARGAAVAPGFDSRGQGTLVTVSS | no binding (tested: antigen at 100 nM) | no binding (tested: antigen at 100 nM) | no binding (tested: antigen at 100 nM) | no binding (tested: antigen at 100 nM) | ~10 | 82.4
BsAb-5 (IL2RB_F09K**IL2RG_F16B) (bispecific antibody, human IgG4, V domains shown, Heavy chain-only bispecific on silenced, stabilised human IgG4 Fc, knobs-into-holes, no light chains; not shown: C-terminal His-tag on the knob chain) V domain 1: QVQLQESSPGLVKPSETLSLTCTVSGGSISSSNWWSWVRQPPGKGLEWIGEISHSGSTNYNPSLKSRVTISVDKSKNQFSLRLSSVTAADTAVYFCGRGSWELTDAFDIRGQGTLVTVSS V domain 2: QVQLVESGGGLVKPGGSLRLSCAASGFTFSDYYMSWIRQAPGKGLEWVSYISSSGSTIYYADSVKGRFTISRDNAKNSLYLQMNSLRAEDTAVYYCARGDAVSITGDYRGQGTLVTVSS | no binding (tested: antigen at 100 nM) | no binding (tested: antigen at 100 nM) | no binding (tested: antigen at 100 nM) | no binding (tested: antigen at 100 nM) | ~4 | 182
BsAb-3 (IL2RB_F09G**IL2RG_F16C) (bispecific antibody, human IgG4, V domains shown, Heavy chain-only bispecific on silenced, stabilised human IgG4 Fc, knobs-into-holes, no light chains; not shown: C-terminal His-tag on the knob chain) V domain 1: QVQLQESGPGLVKSSETLSLTCTVSGGSISSSDWWSWVRQPPGKGLEWIGEIDHSGSTNYNPSLMSRVTISVDKSKNQFSLKLSSVTAADTAVYFCARGSWELTDAFDIRGQGTLVTVSS V domain 2: QVQLVESGGGLVKPGGSLRLSCAASGFTFNDYYMSWIRQAPGKGLEWVSHISSSGSTIYYADSVKGRFTVSRDNANNSLYLQMHSLRAEDTAVYYCARGDAVSITGDYRGQGTLVTVSS | no binding (tested: antigen at 100 nM) | no binding (tested: antigen at 100 nM) | no binding (tested: antigen at 100 nM) | no binding (tested: antigen at 100 nM) | ~10 | 96.7
BsAb-1 (IL2RB_F09C**IL2RG_F16A) (bispecific antibody, human IgG4, V domains shown, Heavy chain-only bispecific on silenced, stabilised human IgG4 Fc, knobs-into-holes, no light chains; not shown: C-terminal His-tag on the knob chain) V domain 1: QVQLQESGPGLVKPSGTLSLTCAVSGGSISSSDWWSWVRQPPGKGLEWIGEIDHSGSTNYNPSLMSRVTISVDKSKNQFSLKLSSVTAADTAVYFCGRGSWELSDAFDIRGQGTLVTVSS V domain 2: QVQLVESGGGLVKPGGSLRLSCAASGFTFSDYYMSWIRQAPGKGLEWVSSISSSGDTIYYADSVQGRFTLSRDNAENSLFLQMNSLRAEDTAVYYCARGDAVSITGDYRGQGTLVTVSS | no binding (tested: antigen at 100 nM) | no binding (tested: antigen at 100 nM) | no binding (tested: antigen at 100 nM) | no binding (tested: antigen at 100 nM) | ~20 | 18.5
